Test results taken from the Human Domainome abundance scans (Beltran et al. 2025).
± gives the uncertainty stated by the source.

B1: SWI/SNF-related matrix-associated actin-dependent regulator of chromatin subfamily B member 1, residues 181 to 248; numbered along this chain, Q12824 (parent)
chain: SQPEVLVPIRLDMEIDGQKLRDAFTWNMNEKLMTPEMFSEILCDDLDLNPLTFVPAIASAIRQQIESY

Variants of: B1
Assay: abundance fitness (aPCA) (normalised: wild type 0, dead -1); higher = more abundant; growth selection in yeast, the domain comes from the species named
Conditions: Homo sapiens

| Variant | abundance fitness |
| --- | --- |
| E4F | -0.294 ± 0.098 |
| E4V | 0.047 ± 0.12 |
| E4I | -0.495 ± 0.17 |
| E4R | -0.234 ± 0.041 |
| E4T | -0.281 ± 0.11 |
| E4D | -0.031 ± 0.088 |
| E4L | -0.292 ± 0.056 |
| E4P | -0.024 ± 0.062 |
| Q18A | -0.311 ± 0.069 |
| Q18L | -0.297 ± 0.16 |
| Q18S | -0.425 ± 0.099 |
| Q18H | -0.136 ± 0.33 |
| Q18G | -1.01 ± 0.27 |
| Q18W | 0.158 ± 0.21 |
| Q18R | -0.276 ± 0.13 |
| Q18V | 0.107 ± 0.083 |
| Q18T | -0.347 ± 0.11 |
| Q18P | -0.93 ± 0.23 |
| Q18K | -0.234 ± 0.26 |
| F24T | -0.746 ± 0.15 |
| F24E | -0.763 ± 0.15 |
| F24C | -0.702 ± 0.15 |
| F24W | -0.293 ± 0.063 |
| F24Q | -1.06 ± 0.24 |

| Variant | abundance fitness |
| --- | --- |
| F24H | -0.991 ± 0.29 |
| F24M | -0.71 ± 0.11 |
| F24S | -0.822 ± 0.098 |
| F24N | -0.964 ± 0.2 |
| F24I | -0.156 ± 0.15 |
| F24K | -0.941 ± 0.16 |
| F24P | -0.866 ± 0.18 |
| F24A | -0.974 ± 0.099 |
| F24G | -0.884 ± 0.092 |
| F24V | -0.331 ± 0.051 |
| F24D | -0.451 ± 0.098 |
| L6Y | -0.346 ± 0.29 |
| L6G | -0.217 ± 0.089 |
| L6F | -0.236 ± 0.12 |
| L6S | 0.036 ± 0.06 |
| L6M | 0.141 ± 0.083 |
| L6T | -0.126 ± 0.082 |
| L6H | -0.212 ± 0.13 |
| L6A | -0.219 ± 0.24 |
| L6I | -0.03 ± 0.43 |
| L6W | -0.152 ± 0.39 |
| L6R | -0.078 ± 0.06 |
| L6V | -0.221 ± 0.18 |
| L6Q | -0.217 ± 0.29 |

| Variant | abundance fitness |
| --- | --- |
| P8T | -0.177 ± 0.048 |
| P8H | -0.641 ± 0.14 |
| P8Q | -0.072 ± 0.043 |
| P8N | -0.286 ± 0.14 |
| P8C | -0.736 ± 0.13 |
| P8I | -0.523 ± 0.1 |
| P8E | -0.197 ± 0.089 |
| P8R | -0.352 ± 0.037 |
| P8A | -0.676 ± 0.074 |
| P8Y | -0.55 ± 0.12 |
| P8S | -0.405 ± 0.042 |
| P8L | -0.512 ± 0.043 |
| P8V | -0.315 ± 0.074 |
| P8F | -0.506 ± 0.089 |
| P8M | -0.355 ± 0.068 |
| P8G | -0.875 ± 0.13 |
| I9T | -0.701 ± 0.21 |
| I9G | -0.762 ± 0.18 |
| I9Q | -0.868 ± 0.21 |
| I9D | -0.74 ± 0.2 |
| I9P | -0.094 ± 0.43 |
| I9H | -0.89 ± 0.25 |
| I9R | -1.03 ± 0.23 |
| I9F | -0.791 ± 0.23 |

| Variant | abundance fitness |
| --- | --- |
| I9A | -0.784 ± 0.11 |
| I9L | -0.989 ± 0.28 |
| I9E | -0.904 ± 0.44 |
| I9N | -0.742 ± 0.25 |
| I9S | -1.05 ± 0.32 |
| L20A | -0.671 ± 0.23 |
| L20M | -0.655 ± 0.19 |
| L20R | -0.501 ± 0.1 |
| L20P | -0.622 ± 0.29 |
| L20V | -0.01 ± 0.076 |
| L20C | -0.319 ± 0.067 |
| L20K | -0.598 ± 0.29 |
| L20E | -0.94 ± 0.32 |
| L20S | -0.603 ± 0.28 |
| L20F | -0.011 ± 0.1 |
| L20N | -0.788 ± 0.45 |
| L20H | -0.525 ± 0.37 |
| L20I | -0.013 ± 0.14 |
| L20G | -0.677 ± 0.18 |
| G17W | -0.897 ± 0.14 |
| G17C | -0.545 ± 0.12 |
| G17P | -0.927 ± 0.29 |
| G17D | -0.745 ± 0.18 |
| G17N | -0.714 ± 0.49 |

| Variant | abundance fitness |
| --- | --- |
| G17V | -1 ± 0.13 |
| G17A | -0.867 ± 0.13 |
| G17R | -0.713 ± 0.071 |
| G17T | -0.896 ± 0.24 |
| G17S | -0.769 ± 0.13 |
| G17M | -1.07 ± 0.27 |
| G17E | -0.931 ± 0.18 |
| G17K | -0.365 ± 0.099 |
| G17H | -0.66 ± 0.23 |
| V5F | -0.079 ± 0.17 |
| V5L | -0.009 ± 0.08 |
| V5Y | -0.096 ± 0.14 |
| V5Q | 0.184 ± 0.11 |
| V5K | -0.051 ± 0.31 |
| V5D | 0.045 ± 0.095 |
| V5H | 0.505 ± 0.19 |
| V5S | -0.174 ± 0.11 |
| V5M | -0.107 ± 0.28 |
| V5E | -0.103 ± 0.15 |
| V5I | -0.438 ± 0.23 |
| V5P | -0.366 ± 0.2 |
| V5C | 0.116 ± 0.077 |
| V5W | -0.312 ± 0.37 |
| V5T | 0.213 ± 0.13 |

| Variant | abundance fitness |
| --- | --- |
| V5R | -0.205 ± 0.053 |
| V5G | -0.302 ± 0.1 |
| V5A | -0.086 ± 0.26 |
| N27G | -0.622 ± 0.22 |
| N27M | -0.988 ± 0.36 |
| N27C | -0.923 ± 0.31 |
| N27P | -0.512 ± 0.15 |
| N27E | -0.822 ± 0.45 |
| N27D | 0.165 ± 0.23 |
| N27Q | -0.685 ± 0.14 |
| N27H | -0.723 ± 0.17 |
| N27A | -0.754 ± 0.17 |
| A23G | -0.291 ± 0.038 |
| A23Q | 0.09 ± 0.09 |
| A23S | 0.089 ± 0.064 |
| A23L | -0.387 ± 0.15 |
| A23W | -0.144 ± 0.039 |
| A23F | -0.039 ± 0.093 |
| A23E | 0.221 ± 0.076 |
| A23M | 0.048 ± 0.067 |
| A23I | -0.076 ± 0.17 |
| A23V | 0.116 ± 0.054 |
| A23K | 0.102 ± 0.083 |
| A23D | 0.211 ± 0.063 |

| Variant | abundance fitness |
| --- | --- |
| A23T | 0.155 ± 0.056 |
| A23Y | -0.147 ± 0.11 |
| A23P | -0.599 ± 0.28 |
| W26E | -0.628 ± 0.33 |
| W26C | -0.673 ± 0.42 |
| W26M | -0.566 ± 0.33 |
| W26R | -0.498 ± 0.18 |
| W26T | -0.854 ± 0.26 |
| W26A | -1 ± 0.28 |
| W26Q | -0.879 ± 0.29 |
| I15E | -0.765 ± 0.18 |
| I15C | -0.702 ± 0.19 |
| I15G | -0.97 ± 0.25 |
| I15F | -0.282 ± 0.19 |
| I15V | -0.516 ± 0.088 |
| I15A | -0.917 ± 0.23 |
| I15S | -0.934 ± 0.47 |
| I15K | -0.982 ± 0.47 |
| I15R | -0.722 ± 0.12 |
| I15Y | 0.116 ± 0.15 |
| I15M | -0.667 ± 0.24 |
| I15L | 0.01 ± 0.12 |
| I15H | -0.625 ± 0.28 |
